These results are taken from patent publication US20190085054A1 (Amgen, published 2019).

What all share (test): cell-based or functional assay
For experiment [1], the target named is T1, catalytic domain of human MMP9 (human, UniProt P14780 107-444, limits assumed).
In experiment [2] the target is active MMP13 (UniProt P45452 20-471, limits assumed).
Experiment [3] deals with T2, human MMP2 (pro-MMP2 activated with APMA) (human, UniProt P08253 30-660).
T2 sequence (looked up): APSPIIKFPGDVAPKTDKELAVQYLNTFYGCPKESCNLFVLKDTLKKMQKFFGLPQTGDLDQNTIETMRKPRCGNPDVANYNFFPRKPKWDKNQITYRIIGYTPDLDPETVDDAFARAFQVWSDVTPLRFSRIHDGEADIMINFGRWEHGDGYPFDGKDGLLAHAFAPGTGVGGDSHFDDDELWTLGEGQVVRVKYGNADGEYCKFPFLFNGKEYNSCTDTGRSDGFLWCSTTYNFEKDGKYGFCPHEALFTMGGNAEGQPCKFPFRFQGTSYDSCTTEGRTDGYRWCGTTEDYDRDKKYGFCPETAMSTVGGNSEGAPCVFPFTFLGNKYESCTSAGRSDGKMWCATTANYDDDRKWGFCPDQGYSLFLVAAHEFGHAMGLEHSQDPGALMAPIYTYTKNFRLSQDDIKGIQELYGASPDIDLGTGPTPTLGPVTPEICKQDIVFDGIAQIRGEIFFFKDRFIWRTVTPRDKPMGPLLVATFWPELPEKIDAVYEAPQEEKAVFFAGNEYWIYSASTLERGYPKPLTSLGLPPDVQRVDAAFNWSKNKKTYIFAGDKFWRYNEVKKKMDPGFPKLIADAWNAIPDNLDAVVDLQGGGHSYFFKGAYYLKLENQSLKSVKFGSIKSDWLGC

Experiment [4] addresses T1, catalytic domain of human MMP9. The source holds these as a separate data set.
Experiment [5] concerns the target T2, human MMP2 (pro-MMP2 activated with …). The source holds these as a separate data set.

T1 sequence (P14780 107-444 limits assumed): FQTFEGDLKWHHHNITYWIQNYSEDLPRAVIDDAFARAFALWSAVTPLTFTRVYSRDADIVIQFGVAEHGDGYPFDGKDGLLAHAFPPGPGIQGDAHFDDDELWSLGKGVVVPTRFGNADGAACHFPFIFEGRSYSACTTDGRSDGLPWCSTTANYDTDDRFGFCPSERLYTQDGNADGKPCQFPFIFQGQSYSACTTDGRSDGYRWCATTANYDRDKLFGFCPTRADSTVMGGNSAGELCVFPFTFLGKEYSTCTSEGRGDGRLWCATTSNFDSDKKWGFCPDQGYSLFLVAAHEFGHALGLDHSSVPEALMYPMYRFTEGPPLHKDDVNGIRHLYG

B1: wild-type TIMP-3 (native human tissue inhibitor of metalloproteinase 3) (other)
chain: CTCSPSHPQDAFCNSDIVIRAKVVGKKLVKEGPFGTLVYTIKQMKMYRGFTKMPHVQYIHTEASESLCGLKLEVNKYQYLLTGRVYDGKMYTGLCNFVERWDQLTLSQRKGLNYRYHLGCNCKIKSCYYLPCFVTSKNECLWTDMLSNFGYPGYQSKHYACIRQKGGYCSWYRGWAPPDKSIINATDP
Take B1: the “MMP9 IC50” value in experiment [1] was 1 nM. Also, the “MMP13 IC50” value in experiment [2] was found to be 0.9 nM. For the same molecule, the “MMP2 IC50” value in experiment [3] stood at 0.6 nM.

B2: TIMP-3 mutein K50N, V52T, F57N, K94N, E96T, R138T, G173T (other)
chain: CTCSPSHPQDAFCNSDIVIRAKVVGKNLTKEGPNGTLVYTIKQMKMYRGFTKMPHVQYIHTEASESLCGLNLTVNKYQYLLTGRVYDGKMYTGLCNFVERWDQLTLSQRKGLNYTYHLGCNCKIKSCYYLPCFVTSKNECLWTDMLSNFTYPGYQSKHYACIRQKGGYCSWYRGWAPPDKSIINATDP
Consider B2, for which, in experiment [4], the “MMP9 Inhibition Shift” value worked out at 91 fold. Further, the “MMP2 Inhibition Shift” value in experiment [5] was 2 fold.

B3: TIMP-3 mutein K45N, V47T, F57N, K75N, P77T, K94N, E96T, R138T, G173T (other)
chain: CTCSPSHPQDAFCNSDIVIRANVTGKKLVKEGPNGTLVYTIKQMKMYRGFTNMTHVQYIHTEASESLCGLNLTVNKYQYLLTGRVYDGKMYTGLCNFVERWDQLTLSQRKGLNYTYHLGCNCKIKSCYYLPCFVTSKNECLWTDMLSNFTYPGYQSKHYACIRQKGGYCSWYRGWAPPDKSIINATDP
As for B3, the “MMP9 Inhibition Shift” value in experiment [4] turned out to be 25 fold. The “MMP2 Inhibition Shift” value in experiment [5] is 7 fold.

B4: TIMP-3 mutein K45E, F57N, K94N, E96T, D110N, K112T, R138T (other)
chain: CTCSPSHPQDAFCNSDIVIRAEVVGKKLVKEGPNGTLVYTIKQMKMYRGFTKMPHVQYIHTEASESLCGLNLTVNKYQYLLTGRVYNGTMYTGLCNFVERWDQLTLSQRKGLNYTYHLGCNCKIKSCYYLPCFVTSKNECLWTDMLSNFGYPGYQSKHYACIRQKGGYCSWYRGWAPPDKSIINATDP
For B4, the “MMP9 Inhibition Shift” value in experiment [4] came out at 128 fold. Further, the “MMP2 Inhibition Shift” value in experiment [5] came out at 1 fold.

B5: TIMP-3 mutein K45S, F57N, T63N, K65T, K94N, E96T, R138T, G173T (other)
chain: CTCSPSHPQDAFCNSDIVIRASVVGKKLVKEGPNGTLVYNITQMKMYRGFTKMPHVQYIHTEASESLCGLNLTVNKYQYLLTGRVYDGKMYTGLCNFVERWDQLTLSQRKGLNYTYHLGCNCKIKSCYYLPCFVTSKNECLWTDMLSNFTYPGYQSKHYACIRQKGGYCSWYRGWAPPDKSIINATDP
For B5, the “MMP9 Inhibition Shift” value in experiment [4] was found to be 16 fold. For the same molecule, the “MMP2 Inhibition Shift” value in experiment [5] is 8 fold.

B6: TIMP-3 mutein K45E, K49E, F57N, K94N, E96T, D110N, K112T, G173T, R186N, K188T (other)
chain: CTCSPSHPQDAFCNSDIVIRAEVVGEKLVKEGPNGTLVYTIKQMKMYRGFTKMPHVQYIHTEASESLCGLNLTVNKYQYLLTGRVYNGTMYTGLCNFVERWDQLTLSQRKGLNYRYHLGCNCKIKSCYYLPCFVTSKNECLWTDMLSNFTYPGYQSKHYACINQTGGYCSWYRGWAPPDKSIINATDP
As to B6, in experiment [4], the “MMP9 Inhibition Shift” value was determined as 5 fold. Also, the “MMP2 Inhibition Shift” value in experiment [5] stood at 1 fold.

B7: TIMP-3 mutein K45S, F57N, T63N, K65T, K94N, E96T, G173T (other)
chain: CTCSPSHPQDAFCNSDIVIRASVVGKKLVKEGPNGTLVYNITQMKMYRGFTKMPHVQYIHTEASESLCGLNLTVNKYQYLLTGRVYDGKMYTGLCNFVERWDQLTLSQRKGLNYRYHLGCNCKIKSCYYLPCFVTSKNECLWTDMLSNFTYPGYQSKHYACIRQKGGYCSWYRGWAPPDKSIINATDP
Take B7: in experiment [4], the “MMP9 Inhibition Shift” value was found to be 16 fold. Further, the “MMP2 Inhibition Shift” value in experiment [5] was found to be 2 fold.

B8: TIMP-3 mutein K45N, V47T, F57N, K94N, E96T, R138T, G173T (other)
chain: CTCSPSHPQDAFCNSDIVIRANVTGKKLVKEGPNGTLVYTIKQMKMYRGFTKMPHVQYIHTEASESLCGLNLTVNKYQYLLTGRVYDGKMYTGLCNFVERWDQLTLSQRKGLNYTYHLGCNCKIKSCYYLPCFVTSKNECLWTDMLSNFTYPGYQSKHYACIRQKGGYCSWYRGWAPPDKSIINATDP
As for B8, in experiment [4], the “MMP9 Inhibition Shift” value came to 15 fold. Further, the “MMP2 Inhibition Shift” value in experiment [5] was 5 fold.

B9: TIMP-3 mutein K45E, F57N, Q126N, R138T, G173T (other)
chain: CTCSPSHPQDAFCNSDIVIRAEVVGKKLVKEGPNGTLVYTIKQMKMYRGFTKMPHVQYIHTEASESLCGLKLEVNKYQYLLTGRVYDGKMYTGLCNFVERWDNLTLSQRKGLNYTYHLGCNCKIKSCYYLPCFVTSKNECLWTDMLSNFTYPGYQSKHYACIRQKGGYCSWYRGWAPPDKSIINATDP
On to B9, for which the “MMP9 Inhibition Shift” value in experiment [4] came to 8 fold. In experiment [5], the “MMP2 Inhibition Shift” value came to 4 fold.

B10: TIMP-3 mutein K45E, K50N, V52T, K94N, E96T, D110N, K112T, R138T, G173T (other)
chain: CTCSPSHPQDAFCNSDIVIRAEVVGKNLTKEGPFGTLVYTIKQMKMYRGFTKMPHVQYIHTEASESLCGLNLTVNKYQYLLTGRVYNGTMYTGLCNFVERWDQLTLSQRKGLNYTYHLGCNCKIKSCYYLPCFVTSKNECLWTDMLSNFTYPGYQSKHYACIRQKGGYCSWYRGWAPPDKSIINATDP
With B10, the “MMP9 Inhibition Shift” value in experiment [4] came out at 1 fold. In addition, the “MMP2 Inhibition Shift” value in experiment [5] is 2 fold.

B11: TIMP-3 mutein K50N, V52T, K94N, E96T, R138T, G173T (other)
chain: CTCSPSHPQDAFCNSDIVIRAKVVGKNLTKEGPFGTLVYTIKQMKMYRGFTKMPHVQYIHTEASESLCGLNLTVNKYQYLLTGRVYDGKMYTGLCNFVERWDQLTLSQRKGLNYTYHLGCNCKIKSCYYLPCFVTSKNECLWTDMLSNFTYPGYQSKHYACIRQKGGYCSWYRGWAPPDKSIINATDP
In the case of B11, the “MMP9 Inhibition Shift” value in experiment [4] is 1 fold. In experiment [5], the “MMP2 Inhibition Shift” value amounted to 2 fold.

B12: TIMP-3 mutein K50N, V52T, F57N, K94N, E96T, D110N, K112T, R138T (other)
chain: CTCSPSHPQDAFCNSDIVIRAKVVGKNLTKEGPNGTLVYTIKQMKMYRGFTKMPHVQYIHTEASESLCGLNLTVNKYQYLLTGRVYNGTMYTGLCNFVERWDQLTLSQRKGLNYTYHLGCNCKIKSCYYLPCFVTSKNECLWTDMLSNFGYPGYQSKHYACIRQKGGYCSWYRGWAPPDKSIINATDP
As to B12, the “MMP9 Inhibition Shift” value in experiment [4] came out at 70 fold. The “MMP2 Inhibition Shift” value in experiment [5] came to 1 fold.

B13: TIMP-3 mutein K45S, F57N, K94N, E96T, D110N, K112T, R138T, G173T (other)
chain: CTCSPSHPQDAFCNSDIVIRASVVGKKLVKEGPNGTLVYTIKQMKMYRGFTKMPHVQYIHTEASESLCGLNLTVNKYQYLLTGRVYNGTMYTGLCNFVERWDQLTLSQRKGLNYTYHLGCNCKIKSCYYLPCFVTSKNECLWTDMLSNFTYPGYQSKHYACIRQKGGYCSWYRGWAPPDKSIINATDP
On to B13, for which the “MMP9 Inhibition Shift” value in experiment [4] was found to be 24 fold. In addition, in experiment [5], the “MMP2 Inhibition Shift” value came out at 6 fold.

B14: TIMP-3 mutein K45N, V47T, F57N, K94N, E96T, D110N, K112T, R186N, K188T (other)
chain: CTCSPSHPQDAFCNSDIVIRANVTGKKLVKEGPNGTLVYTIKQMKMYRGFTKMPHVQYIHTEASESLCGLNLTVNKYQYLLTGRVYNGTMYTGLCNFVERWDQLTLSQRKGLNYRYHLGCNCKIKSCYYLPCFVTSKNECLWTDMLSNFGYPGYQSKHYACINQTGGYCSWYRGWAPPDKSIINATDP
With B14, in experiment [4], the “MMP9 Inhibition Shift” value stood at 8 fold. The “MMP2 Inhibition Shift” value in experiment [5] amounted to 3 fold.

B15: TIMP-3 mutein K45N, V47T, F57N, V97N, K99T, R138T, G173T (other)
chain: CTCSPSHPQDAFCNSDIVIRANVTGKKLVKEGPNGTLVYTIKQMKMYRGFTKMPHVQYIHTEASESLCGLKLENNTYQYLLTGRVYDGKMYTGLCNFVERWDQLTLSQRKGLNYTYHLGCNCKIKSCYYLPCFVTSKNECLWTDMLSNFTYPGYQSKHYACIRQKGGYCSWYRGWAPPDKSIINATDP
For the molecule B15, the “MMP9 Inhibition Shift” value in experiment [4] was determined as 8 fold. In addition, the “MMP2 Inhibition Shift” value in experiment [5] was determined as 6 fold.

B16: TIMP-3 mutein K45S, F57N, H78N, Q80T, K94N, E96T, R138T, G173T (other)
chain: CTCSPSHPQDAFCNSDIVIRASVVGKKLVKEGPNGTLVYTIKQMKMYRGFTKMPNVTYIHTEASESLCGLNLTVNKYQYLLTGRVYDGKMYTGLCNFVERWDQLTLSQRKGLNYTYHLGCNCKIKSCYYLPCFVTSKNECLWTDMLSNFTYPGYQSKHYACIRQKGGYCSWYRGWAPPDKSIINATDP
Regarding B16, the “MMP9 Inhibition Shift” value in experiment [4] stood at 18 fold. Moreover, in experiment [5], the “MMP2 Inhibition Shift” value came out at 5 fold.

B17: TIMP-3 mutein K45N, V47T, F57N, K94N, E96T, D110N, K112T, G173T, R186Q, K188Q (other)
chain: CTCSPSHPQDAFCNSDIVIRANVTGKKLVKEGPNGTLVYTIKQMKMYRGFTKMPHVQYIHTEASESLCGLNLTVNKYQYLLTGRVYNGTMYTGLCNFVERWDQLTLSQRKGLNYRYHLGCNCKIKSCYYLPCFVTSKNECLWTDMLSNFTYPGYQSKHYACIQQQGGYCSWYRGWAPPDKSIINATDP
B17: the “MMP9 Inhibition Shift” value in experiment [4] came to 12 fold. The “MMP2 Inhibition Shift” value in experiment [5] worked out at 3 fold.
